PMC4072508, “Genome-Wide Prediction and Validation of Peptides That Bind Human Prosurvival Bcl-2 Proteins” (PLoS Computational Biology, 2014)

T1: Mcl-1, Q07820
T1 chain: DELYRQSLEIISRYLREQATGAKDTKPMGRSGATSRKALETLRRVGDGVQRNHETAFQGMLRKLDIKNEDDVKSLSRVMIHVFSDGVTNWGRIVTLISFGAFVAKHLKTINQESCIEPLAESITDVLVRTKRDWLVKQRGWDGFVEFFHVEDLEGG


Target: Bcl-xL, Q07817
Experiment: peptide SPOT array, c-Myc-tagged receptor at 1 uM or 100 nM, anti-c-Myc-Cy3

Sequence of Bcl-xL, Q07817 (Q07817 1-209): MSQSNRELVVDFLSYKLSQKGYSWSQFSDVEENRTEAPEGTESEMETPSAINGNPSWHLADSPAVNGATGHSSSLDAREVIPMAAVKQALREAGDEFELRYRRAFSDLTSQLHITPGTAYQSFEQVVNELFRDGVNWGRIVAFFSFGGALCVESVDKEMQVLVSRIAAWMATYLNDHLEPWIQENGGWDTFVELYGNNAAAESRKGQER

SPOT signal as a fraction of Bim BH3's signal on the same receptor and array | Binder
0.54 | CLSCDLCGCRLGEVLRRLYYKLGRKL [LMO2]
0.05 | REHIKLLIQKLTDVAEECQNNQLKKL [PLCB1]
1.26 | RQAFYLHTTKDTRIARRLCREILRPW [MTA1]
0.11 | GSIAKKFSAALQKLSSHLQPRVPEHS [ANO2]

Target: T1, Mcl-1, Q07820
Experiment: as above

SPOT signal as a fraction of Bim BH3's signal on the same receptor and array | Binder
0.08 | YYSSRQYASALKHIAEIIERGIRQHP [TTC30A]
0.1 | PESTKRSALCIFKIARKLLFLFRIKE [UBE3B]
0.02 | LFHLLEFCLLLNQFSRAVAAKWKDDV [RLN1]
0.07 | AASDFRTSVVLNHLAEKWFPGQRERA [LONRF1]
0.05 | LGKRTSSVQALKRSARELIEGSRDDS [DST]
0.02 | QDTEQFVATVLQAASRDLDWEVRAQG [C7orf27]
0.06 | DLVVSELATVIKKCAEKLSSYPRLRE [DNM2]
0.07 | CYRGQLAASVLRQISRELGPQEPTGS [FAM129C]
0.11 | AEIETEYSRNLEKLAERFMAKTRSTK [SRGAP1]
0.19 | VLLLSSSVNSLRKAAHEALQDFQKYK [DNAH8]
0.8 | RLRSEYVAQCLGRAAQGGCPRARCRR [GFRA4]
0.28 | GPEHPAVAATLNNLAVLYGKRGRYRE
0.02 | TTLEMEFAKGLQKIAHNCRQSVMQEP [HMHA1]
0.06 | RNIASQTVARLKDVARRISSCLDFEQ [HERC2]
0.02 | TGKDRLTAGLINIVSFDLLSKLEKQL [SMARCAL1]
0.02 | DRFEGYCIDLLKELAHILGFSYEIRL [GRIK3]
0.02 | RLKVMPFAGVLEHIGGIMEIQLEENP [SLITRK2]
0.02 | EDLKENLAAGIKQIAEFLGFFLTGEQ [SULT6B1]
0.03 | ATPPAASPSALKGVSQDLLERIRAKE [CDT1]
0.29 | GKRMKQFPEVIKYLSRNVVHSVRREH [BAZ2A]
0.02 | FVENASIAYALKNVSGKIWDEDNEKI [NXF3]
0.57 | HQQLTRAARLISETAQRVHTIGQKQK [C9orf100]
0.02 | DPLNDNIATLLHQSSDKFVSELWKDV [MYH9]
0.02 | EGPEVICAQILQGCAKQALEKLEEKR [NCAPD2]
0.01 | RDSFKHLIGGLDDVSNKAYEDAEAKA [PRKG1]

SPOT signal as a fraction of Bim BH3's signal on the same receptor and array | Binder
0.08 | AEIEMDYSRNLEKLAERFLAKTRSTK [SRGAP2]
0.03 | RDHDEFIINLIRGLGGNLNMKSRLEF [DYNC2H1]
0.01 | EGAKSETAEELKKVAQELEEKLNILN [APOL1]
0.02 | DIARSTLAKIIEDLGVHFLLYVLKEL [UTP20]
0.02 | IPGSAVCAFDLTQVAAVFEGRFREQK [SEMA6B]
0.07 | SGKLKEMVPIIAQYGDVLVRNLRREA [CYP3A4]
0.14 | MKLRNLFTKFIRKFGFELVKRLLPEE [RRP12]
0.05 | VPKIASVVGILGHLASRHGDSIRREL [INTS5]
0.2 | AVLSPQSADNLKQVARSLFLLGKHKA [BBS4]
0.02 | DLDSNQAAMVLIRLSHLLSEKPEDKG [TBRG4]
0.02 | RGLEQHVALYLEHGADVGLRTSQGET [ASB16]
0.03 | AFVGRLVSTLISKAGRELGENLDQIL [IPO9]
0.32 | LLLPKGVVLKLKPVATRFPRKAWRQK [GON4L]
0.04 | NPKNKTHACYLKELGEQFVVRANHQV [NWD1]
0.05 | PSTYLAVAEELADVSGKYFDGLKQKA [RDH13]
0.07 | EDLQQVIASVLRNLSWRADVNSKKTL [APC]
0.01 | GADHPDVAKQLNNLALLCQNQGKFED
0.01 | PEVRKVLADVLQDIANDNISSADYTQ [ARSG]
0.05 | FGDEGAVIEVLHRGSADLNARNKRRQ [MIB1]
0.02 | GFKTTVYVSHINDLSDFYVQLIEDEA [TDRD6]
0.01 | SGEFARICRDLSHILDAVVISCAKDG [PCNA]
0.29 | YGKVRKAASSIDQFSIRLGIFLRRYP [GOLGA5]
0.02 | TYEKPQVAEALQRAARIAISVIEFKP [RTDR1]
0.01 | TSMETIGAKALEDFADNIKNDPDKEY [EXOC7]
